Source: article PMC4917244

Experiments:
[1] = biological target: T1, Ros1WOPR-His (Ustilago maydis (FB1?)) (UniProt A0A0D1BVT7); experiment: EMSA
T1 sequence: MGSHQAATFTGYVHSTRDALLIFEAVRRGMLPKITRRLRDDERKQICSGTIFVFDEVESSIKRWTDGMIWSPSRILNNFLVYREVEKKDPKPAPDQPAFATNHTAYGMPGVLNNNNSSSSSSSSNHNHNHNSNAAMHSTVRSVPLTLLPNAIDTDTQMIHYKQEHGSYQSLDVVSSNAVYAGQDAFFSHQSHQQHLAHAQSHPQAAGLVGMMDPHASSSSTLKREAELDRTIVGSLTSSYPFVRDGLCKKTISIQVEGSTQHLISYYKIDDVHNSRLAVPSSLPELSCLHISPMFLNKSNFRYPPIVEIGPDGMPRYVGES

[2] = biological target: T1, Ros1WOPR-His (Ustilago maydis (FB1?)); experiment: competition EMSA

Sequence | binding [1] | binding [2]
CGCCAGAGACAAGTACTGTTCCCAATTCGGAGCTTCGCCGTGAACCACGAATTCATGCATTTCCATATTGGCAAAATATTAAAAAATTGAGGGTTTTGGCGTTGGCCTTTTGAGAGTTTATTTTAGATTTAATTAAGTGATTATGAGGATGATTCTTTTTCTTCATCTTCCTGTAACCGTCACCTGCCACGCTTGCCTAGACGCAGCAGTATCCACTCCGTAGGCGTATGCTATTGT (double strand) [WT-probe (ros1 promoter)] | binds | 
CGCCAGAGACAAGTACTGTTCCCAATTCGGAGCTTCGCCGTGAACCACGAATTCATGCATTTCCATATTGGCAAAATATTAAAAAATTGAGGGTTTTGGCGTTGGCCTTTTGAGAGTTTATTTTAGATTTAATTAAGTGATTATGAGGATGATTCTTTTTCTTCATCTTCCTGTAACCGTCACCTGCCACGCTTGCCTAGACGCAGCAGTATCCACTCCGTAGGCGTATGCTATTGT (double strand) [WT-probe unlabeled competitor] |  | binds
